Laboratory results from the DeepSol protein solubility set.

assay: soluble on expression in E. coli; label from the status in PepcDB or PDB records

Row | Sequence | soluble on expression in E. coli
1 | MGSDKIHHHHHHMEELLERVFSFSDVDKLIDFISYELQKPVILESADFFLLAYNSYYINHFDSANQQTIFSKKCPVQIFERFLKDGIIEKLKTEPEPFRVNKIESIGLNQRVVVSAKHKGEVMGYIWIQELDQNLTDEELDFLYETSFHVGKIIYKTNKLKQEKEEKAEDLIKRAIYQQFTSEKELRREAERINTVLPSMFSVVILHAANGDGEAVEDLKENIRSYLNLRDKVSHVLTIESNIVIVVASFSQKSSVSSAASEFINKLLTHFHFQKIPTPIYIGIGNEYNHLLKLGKSYTEALEVIKAAEITGNQENIPYEYAKLGIYRYLESIEQKNEFLEYENKDLALLKAKDEESSTELLKTLEVYLLNNCKTKPAAEQLFIHQNTLNYRIKQITEMTSIDLSDFRTRCQLYLDLMLMKKK | not soluble
2 | ARGHRHTCKVMVLKEEAAGSERALALDMREGQRVFHSLIVHFENDIPVQIEDRFVNAQVAPDYLKQDFTLQTPYAYLSQVAPLTEGEHVVEAILAEADECKLLQIDAGEPCLLIRRRTWSGRQPVTAARLIHPGSRHRLEGRFTK | soluble
3 | MSLRFVDDEGHYNVSFFHVNDVHAHLDQFASSGTSCDDPEKGCYGGYARIKTKVTELREQYPDNLWLNAGDEFQGTLFYTYYGGEKIAETLNELKFDAMTLGNHEWDGGDEALGQFLLNLTFPIVSCNVKSEVESLNETIKNYHIFEEHEIAVIGATTTTTPGISSVGNTTTFLDPVAEVQKAVWQIRNETEVNRIILLSHLGYEEDQDLAAKTEGISLIIGGHSHTLLGDMEDAKGDYPTMVEDLNGHEVFIVTAYRWGEYLGAIDLTFDDDGHALAYHGAPIHMDNSTSLDEELDTKIQGWAEAFADFAAEVLGETDAVLVQETCQEGDCLLGQVMADAMYEYRYNQTEGTDDEPALALINSGGVRAEINEGPITRGEVLTAFPFGNAIVELEFSGADLRKILEGAVSYVNQFNGDEITSWFQVSRGVRIEFNPDNEPGDRLVNVTIQGEAIDDERDYRVVTLDFLAGGGDSIFVATDDFITLDTQDEVLTQYIVARTPLSPELEERVVENDGEGHHHHHH | soluble
4 | YSLYNPLKEAELQIEATRAEHERNQQAYNQLQATDISRQVQHDSDATRQALQAWQNSQTELARIDSQVQYLSAQLKQTDPLTGILTRAQNLCAAQGYSADICRQVAKAADTNDLTLFETELDTYIERVEMAESELDKARQGGDAQAVETARHAYLNALNRLSRQIHSLKTGVAGIRMPNLAELISRSANTAVSEQAAYNTGRQQAGRRIDRHLTDPQQQNIWLETGTQQTDYHSGTHRPYQQTTNYAHIGIQTGITDRLSVGTILTDERTNNRFDEGVSARNRSNGAHLFVKGENGALFAAADLGYSNSRTRFTDYDGAAVRRHAWDAGINTGIKIDTGINLRPYAGIRINRSNGNRYVLDGAEINSPAQIQTTWHAGIRLDKTVELGQAKLTPAFSSDYYHTRQNSGSALSVNDRTLLQQAAHGTLHTLQIDAGYKGWNAKLHAAYGKDSNTARHKQAGIKIGYNW | not soluble
5 | MASGAKKLRNVNEVLSAKKPVSILLMGTDTGALGRTFAGRTDSMMVVTINPKTNKTTITSIPRDTAVNIPGYTSYGVSKINAAYAYGKSKTAITTVQKMLNIPIDFYAIINMGGMEKIIDEVGGVTLKPTLSFSYGGYTFKKGVKTHMNGKKALAYSRMRDDDPLGDYGRQTRQRKVIMALLNKSNSISSLLNEDFISSLSKQTQTDLTFNDLTALATNYRKATQYIKTTHLQGTSETIESQSMEVASKSELQRVTNYIRKALGLSHKTTGTIAQLEHHHHHH | soluble
6 | MGSDKIHHHHHHMSTNISLFAQVIRLLPRPLIKKLSTEFQVDKHSKHFTSWQHLVSMIFSQFSSCISLREISNGLRSATGNLNHLGICTAPSKSNLSYQNEHRTSDFFRACYYALLDYFGQQGMGQGRKFRFKQPVKLLDSTTITLCLALYDWAKYTHTKGAVKLHTLLDFKTLLPEYVHISDGKGHDGKMANSIPIPAGSIVVADRGYADTALLNSWDSTQVSFVVRHPRSLKYEVIQELELPEHGHQQILVDQRVRLTGVQTQGKYTKPLRHIALYNEQHGDVVELLTNIDTLAASSIALLYRSRWLIEIFFRNLKQRLSMKAFLGTTRNAVEVQIWTALITMLLMVYLKSIAKYRWCLSNLVSSLRINTFTKMDLMQWLNEPFTPPPEPENQLF | not soluble
7 | MKIDRLKTDLAKAREKAAEWQARVRDLEKQITEQENLEILQVVRSVAASPEELRGLLDMIRGAKMPMAGTARTFENMDKEEI | not soluble
8 | MEPGTYELRGTVHDETFNTTVWTPYNFEGFYYSIDENVSTESLTLTEEISGRSIDDEALVYSTSPALVKFEQESWGSYQVIGFMAEKYFAGYPANTFGNSRSVSVLSDDILAKVLIDDDHKRSMFTGSSIALENGYSLKAAEVDVNGNRVLLELYRDGELVDSGITSSNGDYIYEADIGGAEDVPMIAAHISTVFRSRETDAVFIEGIFQVSDDYLELSQGDSFGKMEISTISSSGITMKNEDSISLSRGNTISLMGNVSFKVADSNVLRFYPFVEVKSAPQDQLRIETPDVFVVGEAAEISVTARDAAVSDVEIRLGNQSIGTTGDDGILAYTPTLEGDFTLYANKAGYLSGSKDVDIVLEHHHHHH | soluble
9 | AEESSKAVKYYTLEEIQKHNNSKSTWLILHYKVYDLTKFLEEHPGGEEVLREQAGGDATENFEDVGHSTDARELSKTFIIGELHPDDRSKITKPSESIITTIDS | soluble
10 | MGSDKIHHHHHHVLNFDYDLQSVQETRNLARQAKQAQTELAQFNSEQIDKIIRNMVKVAEENAVALAKLAVEETGFGKVEDKVFKNRFASTELYQFIKPMQTIGVIKEDKINKVMEIAEPVGLLMGIVPSTNPTSTTIYKSLIAIKARNGIVFSPHPSALKCTLEAAKLMNDAAVAAGAPANIIGCISKPSMNATNELMKCDEVAMIIATGGSAMVKAAYSAGKPALGVGPGNVPAYIERTADIPKAVRNIIASKTFDNGTICASEQSVVVEECIRNQVMEEFKRQGGYFMTPEETEQVGRKLFNRGHAMNAKMVGRSAADIAAGAGISIPPGTKVLLGEQQGVGEQYPLSYEKLTTVLAFYTVKDWHEACDLCMKLLNNGGVGHSLSIHTENPEMAIKFAEKPVFRILVNTASTHGGVGVSTGLAPAFTLGCGTWGGSATSDNVTPMHLINIKRVAYGIKDVTENGNSSYATGDAQQGGSGGTVSEDRIQALVNEVMSLLKQRGDC | not soluble
11 | MAELWEIVSFLDEYLKISEYPDKSSNGLQVEGKEEVNTIAFAVDACLDTIVKARAFNADMLIVHHGLIWGGVKYVKGLFAKRVKELLKSNMNLYAAHLPLDAHPEVGNNAQLLKLLGLEPKEKFGEYHGVMIGYIGEFEEEKPLPLIAQMLAEKLPVDYVKSYEFGVQEIKRVGVVSGGGGFAVEEASEKGVDLFITGEFTHEDYRAAEDLRLSVIAAGHYATETLGVKALMPILREKFGVKTIFIDSPTGLLEHHHHHH | soluble
12 | MQYSMGIDAGGTYTDSIIIRDSDGKVMDSNKALTTYPDLLAGIKNSIDGLDEQYLKDVKMVSVSTTLATNTILEKNGYPVGLILVGDYEVPERMQAEYYTVVKGGHDHHGAELTSLDMEAVEAFVNKVKDRVSAFAVSSYFSIRNPAHELAIKARLKELGFSVVCGHELSLDLGAYERGITAYLNAQLIPIASQFILSIREEIRRRGMDARLLMLKCDGSVVGINEALEKPIESIFSGPAASLVGASHLSGLETCAVIDVGGTSTDVSMLENGLPELCSEGAVVGGWQTKVKAIRMETSAMGGDSHVWVKNMKINIGPRRVIPLCVAAVKYPGFLEILKKGRIPGTMHLEENIQPTKFFIRTGLEASNLGSYEKELFDRIGDTPASLNDIFWETQKTLSPGLLDSLLRKRLIQAIGFTPTDALHVLGEYRGWNTEASIAGAKLLERYTHKDYIESARALEHHHHHH | not soluble
13 | MGSDKIHHHHHHMTLSEYLQQLTQFKTIEELWRAHVQQMSRYGFDRLLYGYTLFKTRTSLGDPDDFVILTNHCPEYLQGFLADGLYAHAPMLTWALENEGHASWRVSQEMAAQGLLDKQARKVQDFNQSMGVHAGYTISFNSASERFKGAISLAARADLDQDGIDQIWAEHGADIVLMNNVAHLKILTLPYHAPKRGLTKRQREVLQWVGDGKTTQDIALLMGLTPATIEKHLRLARATLSVETTAQAVLKAALHNQMYAVEH | not soluble
14 | NELSQERTARLNELQRALVMMDSDFRQIALRQTRTNGEEPSKKLLHWADYLLDSDNKGIMFARLGWHNPQQQFPRGEVTKVGYRIKDERLERVWWRYPDTPAGQEGVVTPLLSDVEELNVRFYDGKQWINEWSNELTLPAAISVELTLKDYGKIARTYLTPEGN | soluble
15 | MTQERPSKLSFSIEETVWLNKGQEVKEILAMSLEPDIRIEEKQDHVYIKGGLRLLGEYVPTEEEATLDPTSAIQEQVSFRSVEEVTIDDEGKGSIQHFFPIDVTIPLSRIQKLDDIYVQVDSFDYDLPERSCIQLTADVSISGMTSEPPVSKQKAQSERPAAIDPLPKPPQLEPIPSTFSFEAKKPFVNEEAGAWNEGVQSRQTFKFQPADNENKLEEDVVVSNEEQAHEGEPIEESKADQAKVEESTASVQKQQEENHQQEVTSVANQDETAEGQVNEGNAIEPAMMRGEVDVEHYDSESVEEEENPTKIQLGVQREEVAIDEESQEDLGEDTDEPKGHREENALYLTKMMTNGEEEFSKLKMCIIQENESLDMIAERYDISTSHLIRFNRLTEERVEEGQILYIPVPSHQSKEGLEHHHHHH | soluble
16 | MDKKELFDALDDFSQQLLVTLADVEAIKKNLKSLVEENTALRLENSKLRERLGEVEADAPVKAKHVRESVRRIYRDGFHVCNDFYGQRREQDEECMFCDELLYRE | not soluble
17 | LTVSARDAPTKISTLAVKVHGGSRYATKDGVAHLLNRFNFQNTNTRSALKLVRESELLGGTFKSTLDREYITLKATFLKDDLPYYVNALADVLYKTAFKPHELTESVLPAARYDYAVAEQCPVKSAEDQLYAITFRKGLGNPLLYDGVERVSLQDIKDFADKVYTKENLEVSGENVVEADLKRFVDESLLSTLPAGKSLVSKSEPKFFLGEENRVRFIGDSVAAIGIPVNKASLAQYEVLANYLTSALSELSGLISSAKLDKFTDGGLFTLFVRDQDSAVVSSNIKKIVADLKKGKDLSPAINYTKLKNAVQNESVSSPIELNFDAVKDFKLGKFNYVAVGDVSNLPYLDEL | soluble
18 | MNPASPFATLTDRIDWQKVDGLVPAIVQDFQSSQVLMMGYMNPEALQKTLDTQQVTFFSRSKQRLWTKGETSGHVLQLKNIALDCDQDTLLVKVNPIGPTCHTGTVTCWDGDAQEESQMVWLHQLEQLLAERKNADPSSSYTASLYARGTKRIAQKVGEEGVEVALAATAGDKEELICESADLMYHLLVLLQEQGLAMNDVINKLKERHK | not soluble
19 | MLELNFSQTLGTHCLTLNETLPASGITAIFGVSGAGKTSLINAISGLTRPQKGRIALNGRVLHDAENGICLTPEKRRIGYVFQDARLFPHYKVRGNLRYGMAKSMTGQFDKLVSLLGIEALLDRLPGSLSGGEKQRVAIGRALLTAPELLLLDEPLASLDIPRKRELLPYLQRLAREINIPMLYVSHSLDEILHLADKVMVLEDGQVKAFGPLEEVWGSSVMHPWLPKEQQSSILKVSVLEHHPHYAMTALALGDQHLWVNKLNQPLQSTLRIRIQASDVSLVLQPPQQTSIRNVLRAKVANCYDDNGQVEVQLEIGGRTLWARISPWARDELNIKPGLWLYAQVKSVSITA | not soluble
20 | MSHYGGNPRGNSSHQFGRKDFQQSDSKHIPKITGQPLPNEVQIPFDNMIYETRNPPKFEKQAKFISEYCINYDRKLQLGRMRAKKFHDKLPPNNLSLDLGKGFETFDPKEGDEKIIMLLEWINQMAPEGGRLKKVIHEADVVCWRGLITKICSTIYNKEEGWRIDAIKRKGVIFLCEEKTEQAKNRDLNQTDLDKRMSYWGHKFEQYVTLDDDAEQPDTSSPVTTKEEYAVVFRNDLQTDQRLNPEKRSIGIFYSGEVDCLDRHGNMLELKTQKGELGHGFYKYSKSFKWWLQSSLVNVDHIIVGLRTQEGHVKSLTSLRTREIPQRASWNFRAGFEFLSTIFTYILNCLEKDGDACVIEYRSEMGIHKGIQMRRVPVDEFDFVPNEFLEKFC | not soluble
